Measured values taken from publication PMC6912793.

Target: recombinant human integrin α5β1 (human) (UniProt P08648)
Chain of UniProt P08648 (P08648 42-1049, chain 1 of 2): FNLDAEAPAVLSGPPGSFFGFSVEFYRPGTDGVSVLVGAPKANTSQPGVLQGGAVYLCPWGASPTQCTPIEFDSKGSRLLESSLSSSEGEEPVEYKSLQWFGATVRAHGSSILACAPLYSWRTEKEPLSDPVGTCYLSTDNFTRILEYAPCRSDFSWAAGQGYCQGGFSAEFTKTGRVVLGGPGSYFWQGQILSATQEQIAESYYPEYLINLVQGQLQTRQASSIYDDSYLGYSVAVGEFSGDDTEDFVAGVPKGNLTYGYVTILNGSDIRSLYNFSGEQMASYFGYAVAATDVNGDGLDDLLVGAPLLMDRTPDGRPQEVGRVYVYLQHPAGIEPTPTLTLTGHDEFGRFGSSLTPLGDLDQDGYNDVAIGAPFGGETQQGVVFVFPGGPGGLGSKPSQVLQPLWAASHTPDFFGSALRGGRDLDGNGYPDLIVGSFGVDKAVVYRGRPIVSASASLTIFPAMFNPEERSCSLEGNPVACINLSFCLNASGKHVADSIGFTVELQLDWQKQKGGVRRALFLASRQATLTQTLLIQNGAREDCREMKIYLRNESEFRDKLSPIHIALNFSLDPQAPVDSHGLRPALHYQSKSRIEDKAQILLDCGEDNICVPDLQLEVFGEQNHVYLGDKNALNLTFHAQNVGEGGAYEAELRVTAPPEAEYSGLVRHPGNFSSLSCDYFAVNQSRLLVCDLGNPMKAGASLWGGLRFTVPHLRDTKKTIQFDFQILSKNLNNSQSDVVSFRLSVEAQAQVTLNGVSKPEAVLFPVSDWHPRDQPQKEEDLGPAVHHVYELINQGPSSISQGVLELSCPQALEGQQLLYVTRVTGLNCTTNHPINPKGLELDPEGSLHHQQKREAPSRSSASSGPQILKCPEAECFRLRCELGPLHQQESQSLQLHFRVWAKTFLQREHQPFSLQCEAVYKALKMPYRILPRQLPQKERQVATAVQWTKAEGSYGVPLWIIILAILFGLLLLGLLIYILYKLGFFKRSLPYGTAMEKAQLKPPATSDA
Chain of UniProt P08648 (P05556 21-728, chain 2 of 2, further chain): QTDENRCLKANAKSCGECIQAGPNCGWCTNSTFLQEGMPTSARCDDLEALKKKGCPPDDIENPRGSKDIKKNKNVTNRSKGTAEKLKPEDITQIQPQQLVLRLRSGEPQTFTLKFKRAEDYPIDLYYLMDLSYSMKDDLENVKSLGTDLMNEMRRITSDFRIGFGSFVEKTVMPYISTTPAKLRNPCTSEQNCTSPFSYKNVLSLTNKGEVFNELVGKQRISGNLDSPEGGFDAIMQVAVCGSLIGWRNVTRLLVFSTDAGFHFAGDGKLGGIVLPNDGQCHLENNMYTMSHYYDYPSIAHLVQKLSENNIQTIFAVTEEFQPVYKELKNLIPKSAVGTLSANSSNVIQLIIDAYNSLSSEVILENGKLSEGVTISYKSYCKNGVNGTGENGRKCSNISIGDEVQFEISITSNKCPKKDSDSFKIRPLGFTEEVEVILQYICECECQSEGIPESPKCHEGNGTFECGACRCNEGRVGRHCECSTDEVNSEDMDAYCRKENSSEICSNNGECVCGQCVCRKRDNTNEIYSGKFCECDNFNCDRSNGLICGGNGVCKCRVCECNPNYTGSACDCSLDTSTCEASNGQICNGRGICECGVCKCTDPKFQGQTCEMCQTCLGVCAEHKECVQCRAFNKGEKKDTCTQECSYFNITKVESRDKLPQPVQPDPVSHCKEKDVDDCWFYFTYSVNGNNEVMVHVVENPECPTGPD

reduction of adhesion of HTR8/SVneo cells to native PSG1 (30 μg/mL coated) by a neutralizing antibody to integrin α5, 21% oxygen: 45% | reduction of adhesion of HTR8/SVneo cells to native PSG1 (30 μg/mL coated) by a neutralizing antibody to integrin β1, 21% oxygen: 90%
Substance: native PSG1 (pregnancy-specific glycoprotein 1) purified from the serum of pregnant women (from UniProt P11464 35-419) (natural protein)
